Measured values from a protein production outcome set (Wang et al. 2014).

Assay: label from the status in PepcDB records

NSDLGGTLQFTSSNPDKAFGARLSQTLGSYDTSRTFMRVDTGEYNGLSAYVSGEKYDADAWKGHNNPQKSDAVNAKINYNFGDNRVSFFHSTSSHDEANLPSLSPSIIQRLGYNWSYYTPDWTRAVNAANGIYTGGVTSAGDATYNASSLRDDELDILNGNFSLTDDLVLDATVYHHHDSGRGNSYYPFVYTSGATTVPSNAIRSTVYGIDRTGFQSSLTYFLGQHEIQAGFWIQSNKNDIARYLFDTTNATPQNHIVKTNGLPLAATVLDQSYNDLTRQFYLRDTYTLLDDRLKLEFGAKNTVTTSTAKGKGGGYASGSLEARDRFLPQVGATYKLNDSDEVFTSYSENMAAFPSGGYSPFFTTQTAVDAQNGFKDLKPETSKTVELGLRRSTKLYSASAAVYNTRFDNRLVAITNCTGIVICQNGVANVGSVTSRGLELSLGLTPNENWRWSNSMSYNHSTYDDDYASGGSTVQVKGKTVVDTPKLMYSSSLDWNWEHWNAGLQGNYISKRYYTYTNDSSVSGYWLANANLGYDCGKLGALKDTTVSLNMVNLFDKRYISTLNTDASAAADPSGNLQILQVGTPRSAFVTLGVKL
protein production: failed

NSHKVQMEKEIALKQKKFEQKHLQNYTDEIVGLYNEIRGFRHDYAGMLVSMQMAIDSGNLQEIDRIYNEVLVKANHKLRSDKYTYFDLNNIEDSALRSLVAQSIVYARNNGVEFTLEVKDTITKLPIELLDLVRIMSVLLNNAVEGSADSYKKQMEVAVIKMETETVIVIQNSCKMTMTPSGDLFALGFSTKGRNRGVGLNNVKELLDKYNNIILETEMEGSTFRQIIRFKREFE
protein production: failed

NTMRSFILRARSAPTDSQRLLDEIGGKCHTEILAHCMMNSLFTAQSHREDVVIHLVLESTRDYSRTITVEANEISDVGGFHEAALIALLVKALDASVGMGKEQTRVVQPGLTVRTISFEALLGELAEHHSLYMMDKKGDSIRDIKIGPNPCFILTDHIPMPKKSGNSMKRLGVEKISLGPKMLFASQCVTLIHNEIDHQEA
protein production: failed

NWKTRLRMLNHFPKPTFEDIPLLDLALSDEKVPVRRQAIVLLGMIESKEILPYLYKGLRDKSPAVRRTAGDCISDLGYPEALPEMVLLLDDPQKIVRWRAAMFIFDEGNAEQLPALKAHINDNAFEVKLQIEMAISRIENGDEALGSVWKQMAN
protein production: failed

NYLRDQVVMVGYGEVGRRITKTLMQQEIKVVIAEENREIVEDLRKKGIAAVSGEATEPSVLIQAHIMHARMLILSPMDILDIHRIVDIAKQLNPQIEVLCCAENKEEAEIIRQDEIGLVFYAKEEMAKNMSHHILGQIERAHHLSLGH
protein production: failed

PAKRAFSNADQFVETMLPLAKEAAARIGVDPVMLVAQAALETGWGKSIMRQQDGSSSHNLFGIKAAGSWKGAEARAITSEFRDGKMVKETADFRSYDSYADSFHDLVSLLQNNNRYKDVVNSADKPEQFVKELQKAGYATDPAYASKISQIAKQMKS
protein production: not failed

PDATSKKVVPLGVEIYEINGPFFFGVADRLKGVLDVIEETPKVFILRMRRVPVIDATGMHALWEFQESCEKRGTILLLSGVSDRLYGALNRFGFIEALGEERVFDHIDKALAYAKLLVETAEERGRES
protein production: not failed

PEDAINDESDDEDKVDKDDRLPQSDKDKRIVPENEYSDSEDEGEGGRRDNRSYKGQRKRPRLDKDTNSNKASSETSSEIKDEKEKGDGADGEESTASNTNS
protein production: failed

PEDSARVWQAFSRTLQTGEHVEIDYRYLDPGADDWIHLHVAWRGVRGSSPDTYDVIGITQNVTELVAARDAALAAAETKSQFLANMSHEIRTPMNGVLGVLHLLKTEK
protein production: failed

PFYYRLHFCDTMELFIETLTGTCFELRVSPFETVISVKAKIRRLEGIPICRQHLIWNNMELENDYCLNDYNISEGCTLKLVLAMRGGPINTRRVPTDDPLR
protein production: failed

PGEAVGVTIFEMALDELAEKAGLDPLELRLRNIPEEDPETGKPFTSHMLAEALRDGADRFGWSDRRAPGERRQGEWLIGMGMASAVRVNMLHKARVRVTLTGEGALVESSMTDIGTGTYTILTQIVAEMLGLAPDRVRTVLGDTDLPEGSGSGGSIGAASNGSAAFLACEEIRRQIAAGMGCPEEELTLKDGRATCGNRTRDLAEIVTQPLSAEGHFEPGKALKGVRSSTFGAHFAEVAVNEITGEVRVRRMLGAFAAGRILNEKTARSQCLGGMTFGIGMALMEEMVHDRRFGQVVSRDLANYHIPAHADVPALEVHFLEERDSYGGTLQAKGIGELGICGSGAAVLNAIHNACGVRVRDLPATPDKVLDGL
protein production: failed

PIGKSADNMYSYLALVQDDPTVQVVNMAQKAYVEHYIQGDPDLAKLPVLSAAAPFKVGGRKNDPASFVEVEKGQLTFRNAADLYLYPNTLVVMKVSGKEVKEWLECSAGQFNQIDPASSKPQSLINWDGFRTYNFDVIDGVNYQIDVTQPARYDGECQMIHPQAERIKHLTFNGKPVDPQATFLVATNNYRAYGGKFAGTGESHIAFASPDENRSVLAAWIGAQSKKEGAIHPAADNNWRLAPIHSN
protein production: failed

PKLTRVDIAHDDFEGKHISVDWGNMQDGLGGFQLGNRAPNIEHKGNWRRPNGKGRTLCIGSRDSGKYLRLYEKGRAEGDPNDNWQRAEVEFKSIDRVLPFDMLLAPSEFFIAAYPCFRDLAQHLQPERIETISKTAQINFQTAIENLKHQYGKYINIFKEVFEPEELINLISCSDPLAYPKRLDHVLITARRM
protein production: failed

PLALFKWDLGFNLLECNQSAISMLNYTEDELKQCDFISALVPINEQKRVNKTCSDLLVNEGGEHGFNSLIKQNGNIILTEWHNSLIKDDS
protein production: failed

PLLDSFKVDHTKMNAPAVRIAKTMLTPKGDNITVFDLRFCIPNKEILSPKGIHTLEHLFAGFMRDHLNGDSIEIIDISPMGCRTGFYMSLIGTPNEQKVSEAWLASMQDVLGVQDQASIPELNIYQCGSYTEHSLEDAHEIAKNVIARGIGVNKNEDLSLDNSLLK
protein production: not failed

PLPNPEGLDSDFLAVLSDYPSPDISPPIFRRGEKLRVISDEGGWWKAISLSTGRESYIPGICVARV
protein production: not failed

PMEDEPTSKKLKTEDSLMPEEEFLRRNKGPVSIKVQVPNMQDKTEWKLNGQVLVFTLPLTDQVSVIKVKIHEATGMPAGKQKLQYEGIFIKDSNSLAYYNMANGAVIHLALKERGGRKK
protein production: failed

PPGPCLPPRLQGRPKAKEIQLRWGPPLVDGGSPISCYSVEMSPIEKDEPREVYQGSEVECTVSSLLPGKTYSFRLRAANKMGFGPFSEKCDITTAPG
protein production: not failed

PPNDNIPTPLEKEEKAKEASDNKEKTKETSNSAQNAQNTQASDKTSDNKSTAPKETIKHFTQQLKQEIQEYKPPMSRISMDLFPKELGKVEVIIQKVGKNLKVSVISHNNSLQTFLDNQQDLKNSLNALGFEGVDLSFSQDS
protein production: failed

PPQAMNALMRLNQLKPGLQYKLVSQTGPVHAPIFTMSVEVDGNSFEASGPSKKTAKLHVAVKVLQDMGLPTGAEGRDSSKGEDS
protein production: failed

PPVIRQGPVNQTVAVDGTFVLSCVATGSPVPTILWRKDGVLVSTQDSRIKQLENGVLQIRYAKLGDTGRYTCIASTPSGEATWSAYIEVQEFGVPVQPPRPTDPNLIPSAP
protein production: not failed

PQKIFTPSAEIVKYTKIIAMEKLYAVFTDYEHDKVSRDEAVNKIRLDTEEHLKEKFPEVDQFEIIESFNIVAKEVFRSIILNEYKRCDGRD
protein production: not failed

PRPAVSVAPTTEAESFVQDRIEEDGLHVVHFWAPWCANSRNELDNGWAGLVADNPDVTFTFVTVWNDDESGAAMLNDYNLPDRVVEVTQPDLGPSDTEANRRYSFLGLPVTWIPSTWIFHSNGELAFAMNYGEMEMQTVQRLLDATSADW
protein production: failed

PTLDSVEDGVLKKVVINISNSCNLSCSYCYADGGNYGMDNRIMDLTTADNIIQEIASKGVTQINRLILFGGEPFLNIELFIYFIEKLSTLLNVVKIETVTNGTVLNKRVKEMLVKFHPYLTISLDGPEIVHDRLRGRGSHRKTLRFINYLKNIDYE
protein production: failed

QAEMTQRMQQLEALNDLNRAILAASDAEQIAQIGLRSLRRQVPFWGATAMLIDWESSCARVLAIERAPGASYDPGQRLSLVSYGMEDLERMKRGETCVVTDLGQIPRRALTLERLYQQGIQSYARIPLLAEGRLLGMLNLASDAVGAFDAAQLDVAQAYARHLAVSLQQSLL
protein production: failed

QAPLRIECTDISHIQGTDVVASLVVFEDGLPRKSDYRRYRVKEAAGDGHSNDVASIAEITRRRFLRHNQDKLAVPEAEEFDGSTFSDEKVEEMSTDARRFAYPPQIFIVDGGAPQVAAAQEVFDELGIVDVVLIGLAKRLEEIWLPGDPDPVILPRNSQALFLLQQIRDEAHRFAITYHRQQRSKRMRVSELDSIKG
protein production: failed

QAVPCRAPKVGRLIYTAGGYFRQSLSYLEAYNPSNGSWLRLADLQVPRSGLAGCVVGGLLYAVGGRNNSPDGNTDSSALDCYNPMTNQWSPCASMSVPRNRIGVGVIDGHIYAVGGSHGCIHHSSVERYEPERDEWHLVAPMLTRRIGVGVAVLNRLLYAVGGFDGTNRLNSAECYYPERNEWRMITPMNTIRSGAGVCVLHNCIYAAGGYDGQDQLNSVERYDVETETWTFVAPMRHRSALGITVHQGKIYVLGGYDGHTFLDSVECYDPDSDTWSEVTRMTSGRSGVGVAVTMEPCRKQIDQQNCTC
protein production: not failed

QIGVPPSGPMDDLSFRLGNTALGNPEGAPGLEFTMAGPALRFTHATTVCVTGADVTVTVNGNTANTWEPITVPENGLLDVGSADGSGLRGYILFEGGLDVPRYLGSASTFTLGQFGGHGGRVLRTSDVLRTVSDHLPETVPGVVPEESRPALTSDWELKVVEGPHGAPEFFEREDIEELYAAEYEVHFNSARTGVRLIGPKPRWARNDGGEAGLHPSNIHDTAYSVGALDFTGDTPILLGPDGPSLGGFVCPVTVVTGERWKLGQLRPGDKVRFVPIRSVEAPSVKELGAAR
protein production: failed

QIHLFSEPQFQGHSQSFEETTSQIDDSFSTKSCRVSGGSWVVYDGENFTGNQYVLEEGHYPCLSAMGCPPGATFKSLRFI
protein production: not failed

QKEKCFKCNKCEKTFSCSKYLTQHERIHTRGVK
protein production: not failed

QKIEKQYDADLEQILIQWITTQCRKDVGRPQPGRENFQNWLKDGTVLCELINALYPEGQAPVKKIQASTMAFKQMEQISQFLQAAERYGINTTDIFQTVDLWEGKNMACVQRTLMNLGGLAVARDDGLFSGDPNWFPKKSKE
protein production: not failed

QKKDTSNHFHVFVGDLSPEITTEDIKAAFAPFGRISDARVVKDMATGKSKGYGFVSFFNKWDAENAIQQMGGQWLGGRQIRTNWATRKPPAPKSTYESNTKQ
protein production: not failed

QKVPLPSLSPTMQAGTIARWEKKEGDKINEGDLIAEVETDKATVGFESLEECYMAKILVAEGTRDVPIGAIICITVGKPEDIEAFKNYTLDSSAA
protein production: not failed

QPSRFLLKVLAGANIGAEFHLDSGKTYIVGSDPQVADIVLSDMSISRQHAKIIIGNDNSVLIEDLGSKNGVIVEGRKIEHQSTLSANQVVALGTTLFLLVDYAAPS
protein production: not failed

QQKLAANVFKNSQDGVLIYDADGKLTLMNPAFTDIFGYQMSELSNIPMLTLFDGHHFTTSTSLITESIQRFGQWHGEVLEKDKYGAELPLYVKASKIIDTEQYGQNSYIFIFTNLS
protein production: failed

QRISLEIMTLQPRCEDVETAEGVALTVTGVAQVKIMTEKELLAVACEQFLGKNVQDIKNVVLQTLEGHLRSILGTLTVEQIYQDRDQFAKLVREVAAPDVGRMGIEILSFTIKDVYDKVDYLSSLGKTQT
protein production: not failed

QSAKEAIEAANADFVKAYNSKDAAGVASKYMDDAAAFPPDMARVDGRQNIQKLWQGAMDMGISELKLTTLDVQESGDFAFESGSFSLKAPGKDSKLVDAAGKYVVVWRKGQDGGWKLYRDIWNSDPAK
protein production: not failed
